Measurements as given in PMC7457537, “Influence of the amino-terminal sequence on the structure and function of HIV integrase” (Retrovirology, 2020).

Legend:
Details in all cases: both partners purified
[1] = molecular target: T1, HIV-1 integrase with native N-terminal phenylalanine (IN 1F), full-length, wild type (HIV-1 (NL4-3)); test: AUC; sedimentation equilibrium, 4 °C, same data and buffer as the monomer-dimer fit; attempted fit of a dimer-tetramer equilibrium: tetramer to dimers
T1 chain: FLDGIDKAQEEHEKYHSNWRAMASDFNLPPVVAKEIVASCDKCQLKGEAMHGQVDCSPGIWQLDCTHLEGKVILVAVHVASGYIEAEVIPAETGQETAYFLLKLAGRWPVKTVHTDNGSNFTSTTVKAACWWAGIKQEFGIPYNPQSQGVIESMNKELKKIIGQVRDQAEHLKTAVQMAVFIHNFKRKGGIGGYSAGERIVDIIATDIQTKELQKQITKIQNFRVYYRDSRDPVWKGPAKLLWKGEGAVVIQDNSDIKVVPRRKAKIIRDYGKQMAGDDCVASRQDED

[2] = molecular target: T1, HIV-1 integrase with native N-terminal …; test: AUC; sedimentation equilibrium, 4 °C, 20 mM HEPES-NaOH pH 7.5, 1 M NaCl, 7 mM CHAPS, 10 µM ZnOAc2, 10 µM β-mercaptoethanol; global fit at 16, 20, 24 krpm (SEDPHAT); dimer to monomers
[3] = molecular target: T1, HIV-1 integrase with native N-terminal …; test: SEC-MALS; Superdex 200 10/300, 25 °C, 20 mM HEPES-NaOH pH 7.5, 500 mM-1 M NaCl, 7 mM CHAPS, 10 µM ZnOAc2, 10 µM β-mercaptoethanol; eluted concentrations ~8-10 µM (IN 1F, IN MF); self-association

B1: HIV-1 integrase with native N-terminal phenylalanine (IN 1F), full-length, wild type (enzyme)
chain: T1 chain
modifications: Zn2+ bound in the NTD (H12, H16, C40, C43); native N-terminal Phe1; monomer-dimer equilibrium. Limits: the paper gives F1 as the start and full length; the integrase chain follows RT (ends at 1147) …
Kd [1]: > 1000 µM | Kd [2]: 59.8 µM | stoichiometry N [3]: 2
